Each block holds one substance with its values, some of them ahead of it.
Tests used:
[1] = target: ST2 extracellular domain (ectodomain) (human) (UniProt Q01638); assay: ITC
[2] = target: ST2-Fc fusion protein (R&D Systems) (UniProt Q01638); assay: SPR
[3] = target: IL-33/ST2 complex (human) (UniProt Q01638); assay: ITC

stoichiometry N [1]: 1
Substance: human IL-33 (interleukin-33), recombinant mature IL-1-like form (ligand)

Kd [2]: 3.11 nM
Substance: IL-33 E34K (ligand)

Kd [3]: 76 nM
dH [3]: -11 kcal/mol
stoichiometry N [3]: 1
Substance: IL-1 receptor accessory protein (IL-1RAcP) extracellular domain (from UniProt Q9NPH3 21-367)

Source: article PMC2766095
